# In the DeepSol protein solubility set:
# Experiment: soluble on expression in E. coli; label from the status in PepcDB or PDB records
row,Sequence,soluble on expression in E. coli
1,MGSDKIHHHHHHADNPVVQTLYTTDPAPMVYNGTCYLYTGHDEDGSTWYTMKDWRCYSSTDMVNWTDNGSPLAYNTFSWAKGDAWAGQCIPRNGKFYYYVPVTQKSGGMAIGVAVSNSPTGPFVDALGHPLAYTGTGDIDPTVFIDNDGQAYLYWGNPNLYYVKLNQDMISYSGKIVQVPLTTAGFGVRKGNSSRPTLYEEGPWFYKRNGMYYMVYAAGGIPEYISYSTSKSPTGPWYYKGVIMPSQGRSFTNHPGVIDFKGNSYFFYHNGALPGGSGFTRSVCIEQFKYNADGTFPTINMTTTGVSGIGNLNPYTQNEAETICWESNVKTEKCSEGGMDVCNIQNNSWIKVKGVNFDSGAASFNARVASATNGGNIELHLDSPSGTLIGTCHVNSTGGWQSWVTNSCNVSGAKGIHDLYLKFTGGNGYLFNVNWWKFNGTKTVSTR,not soluble
2,MGSDKIHHHHHHAGTQTAQTQALDSDGIPTGGEWITMFDGKTLNGWRGYCRQDVPLGWVVEDGSITYKGSDNKADTGFGDLIYDKKFKNFVFEIEWKIDKAGNSGIFYTAQEIEGTPIYYSSPEYQLLDNENMPDAWEGCDGNRQAGAVYDMIMPDPQPVKPYGNWNKTRIVVYNQRVIHYMNDVKILEFQFGTPVWRALVDHSKFSKFSTSPEKCPEAYDLMLQCGKQPGYIGMQDHGYGVCFRNIRIKEL,not soluble
3,MGSDKIHHHHHHANNDEWVTCPPGGILAIGTMKIPNADTPRDFFIALDNGDNVLPADTADIRNRKYTVAEGQRVFVGYLQMGKEKPGYENGKIFTIEDILTKEIIPLTEATADSIGDDRINVTAHALTKDYLTIEYQYLGSMNENKKHMLNLVQNEITGPIKDDGYIYLEFRHNAFNDSPNQLGSSLVSFKLDSIAEQLATAKGIKLRVNTIYDNIQYVTIDINEDKNLKIKSFHSQ,not soluble
4,MGSDKIHHHHHHANNFGITYSLPKTSLVVDAEVTKVTCKAGPYYQYAEKYLGVKDAVTEDKIYFDLGKISLINRGLPDADNTYIVEFKQGTVAPYAYLTEDGLLCSINAEYTPVESELDAAKKNKGSQQKVTDTSVFSEELLMAGSTAKQAEVAAKQIYRIRESRLNILTGEADNLPPDGEAMKLVIQQLEEQEKALTNLFTGILTKETEHYEVSIIPHDNLDKEVLFRFSKQLGIVDADDLGGTPVYMNLKATERAPILDAKEAEKKDKSLKGIVYNVPGKASIEILMNKKTLYKGEAQITQFGTREGLAPVMFEDKKAPVKVLFYPETGAIKQIIQ,not soluble
5,MGSDKIHHHHHHAPGQTAQPGRPPTQPQGWSMTVGLAPVYGMAWQGSKDTALSIFPDLRVNYKDALFLSVPEGLGWNAVNANGWKAGPLLKARFGRNEDDGGSPFQIAGGSDALRGMGDIGIAGEAGAFVEKRFGTRQQWRARAEVRQGFGGHEGIVGDISLNWSGRTGRTILSAGPRATFASREYMQTYFGVDAVQASRTGLAASRLGGGLVSYGLGASIVQPLDRRRAVTVFGGADRLGGEPAGSSLIRERGQRTQFVVGVGYGFRFGL,not soluble
6,MGSDKIHHHHHHAPLPQAPIPAPSMSLPGFHAPPPSTSNGTVASGAVRTQPARMPFYVATKGKVTIYVLGTLHVGDPADYPANQPFRRPILAALAASPTLALELSPDDLLESQDDVSKYGVCNYACLPRLLPPPLWQKLANRLRGNPAALAGIRNMRPWLASLVVETYDSLSAGLQTEYGTEAQLQNVFLRKKGGKVVGLETLAEQMRAFTGLTLAQQREMLAQDMVQTPAQNAADVRALHRLWRIGDADAIAAWANAKTERLARARSIADSIDNKIVYERNRRFVARMTAIAAPNRPLFVAIGSLHLGGPKGVLELLRQQGYRVDAG,not soluble
7,MGSDKIHHHHHHAQIKFRNHSVSVVSLNYDASNKTMLFRQGEEMMEMTNPAQVDTVIIGKRKFVPVGRGFYEVVCRKEGVVYIDWLLKDVNIGSKGALGTVTQGSVKNLQMSDLGLNGTEMYTPYERQKIGSTEVYRRKNDNTYYIKVEGKLEKVKSLKHLEKIFIGHKDEIRKFAKDHKIDMKDILDVFSILDYCMELEQ,not soluble
8,MGSDKIHHHHHHAQLSDNGYANVDWQFNAPLKNHFADKASGWGMNFEGGYFVTPNLGLGLFMNYSSNHEYFPRATFPVGEGTVNTDQQHTIFQLPFGAAARYQMNRGGAWQPYFGVKLGANYAKVRSNYNMFETRDNTWGFYVSPEIGLNVYPWAYGPGLHIAVYYSYATNKANVLTYNVDKLNNFGFRVGLAF,not soluble
9,MGSDKIHHHHHHAQYVVTGGSGSPMKASQSSGDSAERLEVYLVYGMDNVTISYTSSSSSSHQWYRYKTKRLEAEKVASTQNGTTSTIRNVEEGYGYFVEEGAVSRYVWIVDYSKYTLNISNLHVSDNSDPCSGLVLAGTGTIQPIYYYWPNTGTRRELSRQFDVIYNTLEYNSDKKEYTSKQETAVIEGNLFGKSIPAPWCDTEICVKGDYFARHFGKEVTLCIDEYQAAAVDAHIDTLLIEQEAPNMNTTKSGYCAPATVQFSAIANTPTAALFNWKIYRQGEEDNPVVRFTGEEVDYTFNQSGTFIIKLEVSDQSTTCSTEDEVQIDISESYLMIPNAFSPGTTPGINDEFRVAYKSLVKFKAWIFNRWGLQMYYWTDPAQGWDGKKGGKYVQPGVYFYVIEAEGSDGIKYKEKGDINILRPKTIQDENENIQE,not soluble
10,MGSDKIHHHHHHARTILREELAQNSINKYSVKQYCQASGVGRASFYSTYNGMPDLFCNTLQFEIRKHFQNYSDCNSRKLVYALLKEIGDHRIYYTNIYRLTNKNTSKIHICHQINHAFFTEMQKHLQNSNCSNKQIQSMTNIIFSRVVSWVAHNCKEKVLDVYVDLEYVLPSN,not soluble
11,MGSDKIHHHHHHASGGVEKINHIVVIYLENRSFDNMFGRFPGADGLEAAKGAPVQVDREGKPYTVLPPILDEKTKQPDPRFPAQIANAPFDIGPHVGQSEKHRDLVHRFYQNMEQINGGRNDKFAAWSDAGGLVMGTYDTSNTRLWALAREFTLADNFFQAAFGGSFLNHFWLICACTPQYEAAPASIRAQLDGDGHLVKDGAVTPDGYPVNTIFSFYPPYPPSATDLAKRLPPQTAPNIGDRLSGKNVSWAWYSGGYAAALEGRNQGNFQYHHQPFVYFASTGEGTKAKARHLKDEAPLFESVAAGRLESVVFYKPVGDENQHPGYADLASGDAKAARLVDAIRASALWKDTAIIITYDENGGFWDHVAPPKGDRWGPGTRIPALIISPYAKRGFVDHTVYDTTSILKLIETRFGLPPLGRRDAVANDLTAAFDFTSERR,not soluble
12,MGSDKIHHHHHHASTKVAKSKAKGKVIVYYVYGKRGHTGKYLWSKKTLTGKIGTTYHTKALDLLNDSGYMALASHSKNTSGKFTRKTTKVYYRYYDVIERDYEFKHEADLYMELTGDHRIGLFDRNLQDGVEVVVERTNFSKPYYDVSYSNRVDTGHGSGLKEFHYRFGSTHRFKDNRDGNIYTMALTNSGGITFHAVATKHSTMNELVQVSAHGKLLTAKIRK,not soluble
13,MGSDKIHHHHHHATWITTLGGMDWPRNKAVNASGIRRQQKELCDILDRLKAANFNTVLLQTRLRGDMIYPSAIETFGESLTGSTGGNPGYDPLAFAIGECHKRGMELHAWIVTIPAGNTRQVQLQGRSSVVRKNRTICKLYKGNWYLDPGNPGTKEYLSCIVKEITSRYDIDGIHFDYIRYPEQADNFPDKDTYRKYGKGKELKQWRRDNITDIVHRLYTDIKTIKPWVKVSSSPIGKYRDTNRYPSRGWNAYHVVYQDAQKWLKEGIHDALFPMMYFQGNNFYPFALDWKENCGNRWIVPGLGIYFLSPDEQNWPLDEIVRQLHFTRQIKLNGQAYFRNRFLLNNTKGIWDELQENFYTTPALIPPMTWMDSIPPSTPAMPSLQLLPDGKMHMSWQISTDNNGGLVTYHLYASDTYPVDITDAGNLLETYLTHTEYEYTPISPWRQKRYFAVTAADRFGNESAPLELNAISETDMPLLNDGDILTLPEIKEAKTVKIFTVTGEEIKYFVYAPQMSIASLPGGFYTVYILNNAGAQTFVGTIVK,not soluble
14,MGSDKIHHHHHHDDDNDYYRYALPNALVTVKPVADNSFFMQLDDSTTLLPVNMKNSPYGEKEVRALVNFDPVNESSGEYDKAVHINWIDSILTKPIAGDLGDKNDEVYGTDPVDMINDWVTIAEDGYLTLRFRTMWGNRSQAHFVNLLMSKDAENPYEVEFRHNAFGDVYGEPADGLVAFNLDSLPDTEGKTVKLKLKWKSFNGEKTAEFDYCTRKSTPANSAAITAGRSVLRLK,not soluble
